Laboratory results taken from patent publication US9394352B2, “Immunogenic POTE peptides and methods of use” (The United States of America, as represented by the …, priority 2010, dated 2016).

How the values were obtained:
HLA-A2 molecule = biological target: T1, HLA-A2 molecule (Homo sapiens, UniProt P04439, D140Y/D185E/D98H/E176V/E277Q/G131W/G231S/I119V/I121R/I166T/I218V/L300P/L318F/N151K/N90K/P208A/P217A/Q86G/Q94H/R138H/R169H/T345S); assay: T2 binding assay (HLA-A2 up-regulation on TAP-deficient T2 cells); conditions: for FI0.5: peptide concentration that increases HLA-A2.1 expression by 50% over no peptide
T1 construct: The T2 cell line is deficient for TAP1 and TAP2 transporter proteins and expresses low levels of HLA-A2; endogenous in cells; host or cells: T2 cell line (TAP1/TAP2-deficient)
Protocol: FIG. 1 is a graph showing binding affinity of POTE peptides to HLA-A2 molecules. Peptides were dissolved in DMSO in double-distilled water and different concentrations of peptides were added into the culture of TAP-deficient T2 cells. After overnight culture of the cells in medium supplemented with β2-microglobulin, cells were stained with anti-HLA-A2. HLA-A2 expression was quantified as fluorescence index (FI) according to the following formula: FI=[(mean fluorescence intensity with peptide−mean fluorescence intensity without peptide)/mean fluorescence intensity without peptide]. Background fluorescence without BB7.2 was subtracted for each individual value. To compare the different peptides, FI0.5 (the peptide concentration that increases HLA-A2.1 expression by 50% over no peptide control background) was calculated from the titration curve for each peptide.
FIGS. 2A-2C are graphs showing binding affinity of substituted POTE peptides to HLA-A2 molecules. Shown are binding affinities of the substituted POTE 252 peptides (FIG. 2A), the substituted POTE 553 peptides (FIG. 2B) and the substituted POTE 323 peptides (FIG. 2C) to HLA-A2 molecules. Different concentrations of peptides were added into the culture of TAP-deficient T2 cells. After overnight culture of the cells in medium supplemented with β2-microglobulin, cells were stained with anti-HLA-A2 antibody.
Peptide binding capacity to the HLA-A2 molecule was measured by using the T2 cell line according to a protocol described previously (Peters et al., Bioinformatics 19(14):1765-1772, 2003). T2 cells (3×10^5 cells/well) were incubated overnight in 96-well plates with culture medium (1:1 mixture of RPMI 1640/Eagle-Hank's amino acid containing 2.5% fetal bovine serum, 100 U/ml penicillin, and 100 μg/ml streptomycin) with 10 μg/ml β2-microglobulin (Sigma) and different titrated concentrations of peptides (starting from 100 μM with 2-fold serial dilution) as shown in the figures to determine the concentration giving a 50% increasing in binding. Cells were washed once with cold HBSS containing 0.1% BSA and incubated for 30 minutes at 4° C. with anti-HLA-A2.1 BB7.2 monoclonal antibody (1:40 dilution from hybridoma supernatant). After washing, cells were stained with FITC-labeled goat anti-mouse immunoglobulin (BD, San Jose, Calif.), and the level of HLA expression was measured by flow cytometry. HLA-A2 expression was quantified as fluorescence index (FI) according to the following formula: FI=[(geometric mean fluorescence intensity with peptide-geometric mean fluorescence intensity without peptide)/geometric mean fluorescence intensity without peptide]. Background fluorescence without BB7.2 was subtracted for each individual value. To compare the different peptides, FI0.5, the peptide concentration that increases HLA-A2.1 expression by 50% over no peptide control background, was calculated from the titration curve for each peptide.

[1] = system: IFN-γ secreting spleen cells; assay: ex vivo IFN-γ ELISPOT assay on splenocytes of peptide-immunized AAD mice; assay type: in vivo; conditions: AAD mice immunized s.c., splenocytes pooled from three mice two weeks after boost
Protocol: FIGS. 3A and 3B are graphs showing immunogenicity of the wild type and enhanced POTE 252 epitopes in AAD mice. AAD mice were immunized subcutaneously with a mixture of peptide and cytokines in adjuvant as described in Example 1. (FIG. 3A) Two weeks after the second boost, splenocytes pooled from three mice were restimulated with splenocytes of naïve AAD mice pulsed with 1.0 μM of each peptide at different effector to target (E/T) ratios. Cells were cultured in anti-mouse IFN-γ antibody coated ELISPOT™ plates. After overnight culture, biotinylated anti-mouse IFN-γ antibodies were added to each well. ELISPOT™ substrates were added to develop the color and spots were counted by an ELISPOT™ reader (AID ELISPOT™ reader system). Figures show numbers of spots per million cells. (FIG. 3B) CTL cross-reactivity on each peptide. Two weeks after the second boost, pooled spleen cells from three mice were restimulated with irradiated splenocytes pulsed with 1.0 μM of peptide for 7 days. In a 4-hour ^51Cr release assay, CIR.AAD cells were pulsed with 1.0 μM of peptide and labeled with ^51Cr. After washing three times, target cells were mixed with different numbers of effector cells and then cultured for 4 hours before harvesting.
FIGS. 4A-4D are graphs showing immunogenicity of the wild type and enhanced POTE 553 epitopes in AAD mice. AAD mice were immunized subcutaneously with a mixture of peptide and cytokines in adjuvant. (FIGS. 4A and 4B) Two weeks after the second boost, splenocytes pooled from three mice were restimulated with splenocytes of naïve AAD mice pulsed with 10 nM to 1.0 μM of each peptide at different E/T ratios. Cells were cultured in anti-mouse IFN-γ antibody coated ELISPOT™ plates. After overnight culture, biotinylated anti-mouse IFN-γ antibodies were added to each well. ELISPOT™ substrates were added to develop color and spots were counted by an ELISPOT™ reader (AID ELISPOT™ reader system). Figures show numbers of spots per million cells. (FIGS. 4C and 4D) CTL cross-reactivity on each peptide. Two weeks after the second boost, pooled spleen cells from three mice were restimulated with irradiated splenocytes pulsed with 1.0 μM of peptide for 7 days. In a 4-hour ^51Cr release assay, CIR.AAD cells were pulsed with 1.0 μM of peptide and labeled with ^51Cr. After washing three times, target cells were mixed with different numbers of effector cells and then cultured for 4 hours before harvesting.
FIGS. 5A and 5B are graphs showing immunogenicity of the POTE 272 epitope in AAD mice. AAD mice were immunized subcutaneously with a mixture of peptide and cytokines in adjuvant. (FIG. 5A) Two weeks after the second boost, splenocytes pooled from three mice were restimulated with splenocytes of naïve AAD mice pulsed with 1.0 μM POTE 272 peptide at different E/T ratios. Cells were cultured in anti-mouse IFN-γ antibody coated ELISPOT™ plates. After overnight culture, biotinylated anti-mouse IFN-γ antibodies were added in each well. ELISPOT™ substrates were added to develop color and spots were counted by an ELISPOT™ reader (AID ELISPOT™ reader system). Figures show numbers of spots per million cells. (FIG. 5B) CTL reactivity on POTE 272 peptide. Two weeks after the second boost, pooled spleen cells from three mice were restimulated with irradiated splenocytes pulsed with 1.0 μM POTE 272 peptide for 7 days. In a 4-hour ^51Cr release assay, CIR.AAD cells were pulsed with 1.0 μM POTE 272 peptide and labeled with ^51Cr. After washing three times, target cells were mixed with different numbers of effector cells and then cultured for 4 hours before harvesting.
FIGS. 6A and 6B are graphs showing immunogenicity of the wild type and enhanced POTE 323 epitopes in AAD mice. AAD mice were immunized subcutaneously with a mixture of peptide and cytokines in adjuvant. (FIG. 6A) Two weeks after the second boost, splenocytes pooled from three mice were restimulated with splenocytes of naïve AAD mice pulsed with 1.0 μM of each peptide at different E/T ratios. […]

binding affinity for the HLA-A2 molecule (in words) (HLA-A2 molecule; T2 binding assay): intermediate binders | FI0.5 (HLA-A2 molecule; substituted peptides and their wild types, Table 2 / FIGS. 2A-2C): 1.5 µM | FI0.5 (HLA-A2 molecule; wild-type peptides, Table 1 / FIG. 1): ~1.6 µM
Sequence: KLMAKALLL [POTE 252-260, unmodified 9-mer peptide, residues 252-260 of human POTE]
IFN-γ response (ELISPOT spots) on stimulation with the immunizing peptide [1]: induced a significant number of IFN-γ spots
